# Assay results published in patent US20220064286A1 (Genentech, published 2022).
# Read-outs that look alike come from different tables or passages of the source.
# T1: human TIGIT protein (human, UniProt Q495A1 22-141, limits assumed)
# T1 construct: Recombinant protein (Genentech) used in ELISA screening and as SPR analyte; also called TIGIT antigen
# T1 sequence: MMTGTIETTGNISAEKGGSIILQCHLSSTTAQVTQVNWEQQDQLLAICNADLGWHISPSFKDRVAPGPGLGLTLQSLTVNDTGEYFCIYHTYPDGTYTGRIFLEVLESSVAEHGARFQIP
# T2: full-length human TIGIT on CHO cells (human, UniProt Q495A1 22-244)
# T2 construct: also called CHO-hTIGIT; hu TIGIT
# T2 sequence: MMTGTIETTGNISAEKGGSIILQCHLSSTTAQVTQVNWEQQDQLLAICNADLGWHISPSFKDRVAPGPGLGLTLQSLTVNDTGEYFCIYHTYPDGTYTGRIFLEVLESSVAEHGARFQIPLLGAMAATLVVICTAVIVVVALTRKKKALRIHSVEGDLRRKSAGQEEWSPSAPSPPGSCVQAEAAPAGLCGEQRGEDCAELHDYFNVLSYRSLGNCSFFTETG
# T3: human TIGIT on activated human primary T cells (human, UniProt Q495A1 22-244)
# T3 construct: also called Human T cell
# T3 sequence: T2 sequence
# B1: 7.4A3 (antibody, V domains shown)
# VH: QVQLVQSGSDLKKPGASVRVSCKASGYTFTSYPMNWVRQAPGHGLEWMGWINTNTGNPTYVQGFTGRFVFSLDTSVNTAYLQISSLKAEDTAVYFCARTGGHTYDSYAFDVWGQGTMVTVSS
# VL: DIQLTQSPTFLSASVGDRVTITCRASQVISSSLAWYQQNPGKAPKLLIYAASTLQSGVPSRFSGSGSGTEFTLTISSLQPEDFVTYYCQHLHGYPCNFGQGTKVEIK
# notes: OMT rat-derived human antibody; also called 7.4A3.Q1.C96
# B2: rat7E7 (antibody, V domains shown)
# VH: EVQLQQSGPELQRPGASVKLSCKATGYTFTEYSIYWVKQRPKQSLEIIGRIDPKNGRTYYVDKFKNRATLTADTSSNTAYMQLSSLTSEDTATYFCTRIYGFYFDFWGQGVMVTASS
# VL: NIHLTQSPSLLSASVGDRVTLSCKGSQNVNKYLVWYQQKLGEAPKLLIYNTDNLQSGIPSRFSGSGSGTDYTLTISSLQPEDAATYFCYQYNNGFTFGSGTKLEIK
# notes: SD rat-derived; rat V domains as FR/HVR pieces; also called 1.7E7; Chimeric 1.7E7
# B3: 4.1A4.C96S.Q1E (antibody, V domains shown)
# VH: EVQLVQSGSELKKPGASVKVSCKASGYTLTNYPMNWVRQAPGRGLEWMGWINTNTGSPAYAQDFTERFVFSLDTSVTTAYLQISSLKAEDTAVYYCARTAITSVYHFDYWGQGTLVTVSS
# VL: DIQLTQSPSFLSASVGDRVTITCRASQGISSYLAWYQQKPGKAPRVLIYGATTLQSGVPSRFSGSESGTEFTLTISSLQPEDLATYYCQKLNSHPSSFGQGTKVEIK
# notes: FR/HVR pieces in order; also called 4.1A4.Q1E.C96S
# B4: rat6B2 (antibody, V domains shown)
# VH: QVSLKESGPGILQPSHTLSLTCSFSGFSLSTYGMGVSWIRQPSEKGLEWLASIWWNGNTYYNPSLKSRLTVSKDASNDQAFLNVTSVDTTDTATYYCAHTGGAVITWFAYWGQGTLVTVSS
# VL: NIVMTQSPKSMSISVGDRVTMNCKASQSVGKNIAWYQQKPGQSPKLLIYYASNRYTGVPDRFTGGGSGTDFTLTINTVQAEDAAFFYCQHIYNSPYPFGTGTKLEIK
# notes: SD rat-derived; rat V domains as FR/HVR pieces; also called 1.6B2; Chimeric 1.6B2
# Legend:
# [1] = biological target: T4, cynomolgus TIGIT on CHO cells (cynomolgus monkey, UniProt A0A7N9I9V4 89-312); assay: FACS on CHO cells expressing cyno TIGIT, FITC anti-hIgG detection
# T4 construct: whole, on cells; also called CHO-cyTIGIT; cyTIGIT
# Method: Additional in vitro binding studies of the OMT- and SD-derived anti-TIGIT antibody clones were conducted. The OMT- and SD-derived anti-TIGIT clones were tested for binding to human and cyno TIGIT expressed on the surface of CHO cells by FACS analysis. CHO cells were transfected with full-length human TIGIT (CHO-hTIGIT) or cynomologous TIGIT (CHO-cyTIGIT). The TIGIT-expressing CHO cells were incubated with each anti-TIGIT antibody at the indicated concentrations and then detected via a FITC-labeled anti-hIgG antibody (see FIG. 1A) using standard methods. The results, shown in Table 6 and FIGS. 1B-1E, corroborate the results from the BIACORE™ analysis, described above.
# [2] = biological target: T1, human TIGIT protein; assay: SPR, monovalent affinity
# [3] = biological target: T5, cynomolgus monkey (cyno) TIGIT protein (cynomolgus monkey, UniProt A0A7N9I9V4 89-209); assay: SPR, monovalent affinity
# [4] = biological target: T1, human TIGIT protein; assay: SPR, bivalent affinity
# [5] = biological target: T5, cynomolgus monkey (cyno) TIGIT protein; assay: SPR, bivalent affinity
# [6] = biological target: T4, cynomolgus TIGIT on CHO cells; assay: FACS blocking assay: labelled PVR-Fc (blocked ligand; text: cyPVR, scheme of FIG. 4A prints hPVR.Fc) on CHO cells expressing cyno TIGIT
# Method: (§1) These studies were further validated in CHO-TIGIT PVR blocking experiments in which TIGIT-expressing CHO cells were incubated with labeled PVR-Fc fusion protein in the presence of anti-TIGIT antibody or an human IgG1 control (FIG. 4A).
# [7] = biological target: T1, human TIGIT protein; assay: SPR, captured mAb
# Text: (§2) To prevent unwanted pyroglutamate formation for clones 4.1A4, 4.1 D3, and 7.4A3 (also referred to as 1A4, 1 D3, and 4A3, respectively) and to resolve the issue of unpaired cysteine residues for clones 4.1A4 and 7.4A3, the following optimized anti-TIGIT antibody variants were generated: 4.1A4.C96S.Q1E, 4.1A4.C96Y.Q1E, 4.1 D3.Q1E, 7.4A3.C96S.Q1E, and 7.4A3.C96Y.Q1E (also referred to as 1A4.C96S.Q1E, 1A4.C96Y.Q1E, 1 D3.Q1E, 4A3.C96S.Q1E, and 4A3.C96Y.Q1E, respectively). As described below in Table 2, the affinities of these five optimized variants for human and cynomolgus monkey (cyno) TIGIT were then determined by Surface Plasmon Resonance (SRP) (BIACORE™ analysis) and compared to that of their respective parental clones.
# (§3) Briefly, a series S CM5 biosensor chip was activated with N-ethyl-N′-(3-dimethylaminopropyl)-carbodiimide hydrochloride (EDC) and N-hydroxysuccinimide (NHS) reagents according to the supplier's (GE Healthcare Biosciences, Piscataway, N.J.) instructions, and a human antibody capture kit was applied to couple goat anti-human Fc IgGs in order to achieve approximately 10,000 response units (RU) on each flow cell, followed by blocking un-reacted groups with 1M ethanolamine.
# (§4) (flow rate: 30 μl/min) with no regeneration between injections. The sensorgrams were recorded and evaluated by BIAcore™ T200 Evaluation Software (version 2.0) after subtraction of reference cell signal. Association rates (kₒₙ) and dissociation rates (koff) were calculated using a simple one-to-one Langmuir binding model. The equilibrium dissociation constant (KD) was calculated as the ratio koff/kₒₙ.
# [8] = biological target: T5, cynomolgus monkey (cyno) TIGIT protein; assay: SPR, captured mAb
# Text: as §2, §3, §4
# [9] = biological target: T2, full-length human TIGIT on CHO cells; assay: FACS, PVR-Fc on CHO-TIGIT cells; competitor PVR-Fc
# Method: as §1
# [10] = biological target: T4, cynomolgus TIGIT on CHO cells; assay: FACS blocking assay: labelled PVR-Fc (blocked ligand) on CHO cells expressing cyno TIGIT
# Method: as §1
# [11] = biological target: T3, human TIGIT on activated human primary …; assay: FACS, activated human T cells
# Method: The OMT- and SD-derived anti-TIGIT clones were also tested for binding to human primary T cells by FACS analysis. Human PBMC were activated for with plate-bound anti-CD3 (5 μg/ml) and soluble anti-CD28 (2 μg/ml) for 2 days as described in Yu et al. Nature Immunology. 10: 48-57, 2009, which is incorporated herein by reference in its entirety. Cells were then washed and incubated with incubated with each anti-TIGIT antibody at the indicated concentrations and then detected via a FITC-labeled anti-hIgG antibody. Cells were also stained with anti-CD4, anti-CD8, and anti-CD25 (BD bioscience). Human CD4+(CD25+CD4+) and human CD8+(CD25+CD8+) T cells were assessed for binding by the anti-TIGIT clones by FACS. All samples were acquired on LSR-II or LSR-Fortessa instruments (BD Biosciences) and analyzed using FlowJo software (Treestar).
# [12] = biological target: T2, full-length human TIGIT on CHO cells; assay: FACS, CHO cells expressing TIGIT
# [13] = biological target: T1, human TIGIT protein; assay: SPR, captured mAb; remark: listed apart in the source
# Method: as §3, §4
# (§5) The first humanized versions, h6B2, L1H1, h10A5.L1H1, h7E7, L1H1, and h15C8.L1H1, which contain both rat CDRs and framework residues at Vernier positions, and the fully humanized versions, h6B2.L2H5, h10A5.L4H4, h7E7.L5H9, and h15C8.L5H9, which contain only rat CDRs were subject to BIAcore affinity measurement by comparison with original rat antibodies, rat6B2, rat10A5, rat7E7 and rat 15C8. For binding affinity determinations of TIGIT antibodies against human TIGIT, cynomolgus monkey TIGIT and human alanine-scanned TIGIT mutants by single-cycle kinetics, Surface Plasmon Resonance (SRP) measurement with a BIACORE™-T200 instrument was used, as described above.
# [14] = biological target: T5, cynomolgus monkey (cyno) TIGIT protein; assay: SPR, captured mAb; remark: listed apart in the source
# Method: as §3, §4, §5
# T5 sequence (A0A7N9I9V4 entry or part of it): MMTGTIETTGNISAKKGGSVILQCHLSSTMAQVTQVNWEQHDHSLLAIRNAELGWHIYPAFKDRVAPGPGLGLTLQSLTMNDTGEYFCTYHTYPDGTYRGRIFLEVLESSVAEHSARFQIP
# T4 sequence (A0A7N9I9V4 entry or part of it): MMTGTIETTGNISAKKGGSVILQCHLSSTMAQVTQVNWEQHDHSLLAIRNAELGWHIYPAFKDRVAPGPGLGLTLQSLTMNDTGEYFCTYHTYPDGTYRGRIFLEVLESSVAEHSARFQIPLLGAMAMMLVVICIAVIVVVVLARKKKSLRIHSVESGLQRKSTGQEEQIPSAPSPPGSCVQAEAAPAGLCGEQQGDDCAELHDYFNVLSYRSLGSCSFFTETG
Binder,EC50 (read off the curve) [1] [nM],Kd [2] [nM],Kd [3] [nM],Kd [4] [nM],Kd [5] [nM],IC50 (read off the curve) [6] [nM],Kd [8] [nM],koff [8] [s⁻¹],kon [8] [M⁻¹ s⁻¹],IC50 [9] [nM],EC50 [11] [nM],EC50 [12] [nM],Kd [13] [nM],koff [13] [s⁻¹],kon [13] [M⁻¹ s⁻¹],Kd [14] [nM],koff [14] [s⁻¹],kon [14] [M⁻¹ s⁻¹],other results
B1,~1,3.6,1.6,0.098,≤ 0.05,~0.3,2.09,0.000699,334000,,,,,,,,,,Kd [7]: 3.44 nM; koff [7]: 0.00104 s⁻¹; kon [7]: 302000 M⁻¹ s⁻¹
B2,~0.3,≤ 0.018,0.067,≤ 0.004,≤ 0.009,,,,,0.04,0.11,0.1,0.03,1.8e-05,568000,0.07,2.7e-05,399000,IC50 (read off the curve) [10]: ~0.3 nM
B3,~0.5,,12.6,,,~0.09,12.6,0.0169,1.34e+06,,,,,,,,,,
B4,,0.035,0.29,≤ 0.027,0.091,,,,,0.08,0.09,0.52,0.04,3.5e-05,997000,0.29,0.000202,688000,
